Measurements from PMC11044963 (2024).
Blank lines part the entries; values can stand above or below the binder they belong to. Where no end group is shown, it is not given here. The star is where a group is joined. FITC = O=C1OC2(c3ccc(O)cc3Oc3cc(O)ccc32)c2ccc(NC(=S)*)cc21

Assays:
[1] = target: DDB1–DCAF12–DDA1 complex (human | , UniProt Q5T6F0 1-453; Q5T6F0 1-453; Q9BW61 1-102); test: FP
[2] = target: biotinylated DCAF12 (Δ1–78) (human, UniProt Q5T6F0 79-453, biotin); test: SPR

- Kd [1]: 60 nM
B1: FITC-labeled MAGEA3 peptide (peptide)
peptide: {FITC}-LHEWVLREGEE

- koff [2]: 0.017 s⁻¹
B2: unlabeled CCT5 peptide (peptide)
peptide: IRKPGESEE

- koff [2]: 0.06 s⁻¹
B3: unlabeled MAGEA3 peptide (peptide)
peptide: LHEWVLREGEE

- Kd [1]: 130 nM
B4: FITC-labeled CCT5 peptide (peptide)
peptide: {FITC}-IRKPGESEE
